This note sets out measurements from patent US20200199177.

One data set relates to T1, (AcDEVD)K-pNA.
T1 sequence: DEVD

For another data set, the system named is T2, (AcDVED)K-pNA.
T2 sequence: DVED

A further data set concerns T3, AcDEVD-pNA.
T3 sequence: DEVD

In a further data set the test system is T4, (AcAAF)K-pNA.
T4 sequence: AAFK

Data set [1] relates to T5, (AcFG)K-pNA.
T5 sequence: FGK

Another data set deals with T6, (AcIEPD)K-pNA.
T6 sequence: IEPD

The next data set deals with T7, AcIEPD-pNA.
T7 sequence: IEPD

For another data set, the system named is T8, CAAK(F)-diamino-pNA.
T8 sequence: CAAK

The target in data set [2] is T9, (AcFG)K-pNA (not fully specified).
T9 chain: FGK

As to Caspase 3, in the data set with (AcDEVD)K-pNA, the “absorbance increase at 405 nm (pNA release), 125 uM substrate first with caspase-3 then with trypsin, over 60 minutes” value was found to be 0.1±0.006 AU and the “pNA release relative to the commercial substrate AcDEVD-pNA” value was “pNA release from our substrate corresponded to 83% of the release from the commercial substrate”. The “pNA release with trypsin and caspase 3” value with (AcDVED)K-pNA is “no pNA release occurred when (AcDVED)K-pNA (SEQ ID NO: 2) was incubated with trypsin and caspase 3”. In addition, the “pNA release on caspase 3 digestion” value in the data set with AcDEVD-pNA is “both substrates are digested efficiently by caspase 3”.
In the case of Trypsin, the “absorbance increase at 405 nm (pNA release), 100 uM peptide with trypsin only” value in the data set on (AcAAF)K-pNA is recorded as “a minimal absorbance increase (0.016±0.002 AU) was observed when 100 µM peptide was incubated with trypsin only”. In addition, the “absorbance increase at 405 nm (pNA release) with trypsin only” value in the data set with (AcDEVD)K-pNA is reported as “In the presence of trypsin or caspase 3 only, no absorbance increase was observed as expected”. In addition, the “pNA release (absorbance at 405 nm) with trypsin only” value with (AcFG)K-pNA [1] was “no absorbance increase was observed when the substrate was incubated with each enzyme separately”.
Caspase 8: the “absorbance increase at 405 nm, 500 uM substrate with caspase 8 for 24 hours before adding trypsin” value with (AcDEVD)K-pNA is “did not result in a significant absorbance increase”. Also, the “absorbance increase at 405 nm (pNA release) with caspase 8 and trypsin” value in the data set on (AcIEPD)K-pNA was “little to no absorbance increase in the presence of caspase 8 and trypsin”. In addition, the “caspase 8 activity on single enzyme substrate (absorbance, pNA release)” value with AcDEVD-pNA and in the data set with AcIEPD-pNA was “cleaved as expected” each time.
In the case of Chymotrypsin, in the data set on (AcAAF)K-pNA, the “absorbance increase at 405 nm (pNA release), 50 uM substrate with chymotrypsin and trypsin, after five hours” value was found to be 0.039±0.003 AU; the “absorbance increase at 405 nm (pNA release), 100 uM substrate with chymotrypsin and trypsin” value is 0.070±0.002 AU; the “absorbance increase at 405 nm (pNA release), 200 uM substrate with chymotrypsin and trypsin” value was determined as 0.147±0.002 AU. Also, in the data set with CAAK(F)-diamino-pNA, the “pNA release (absorbance at 405 nm), 2 mM peptide with trypsin and/or chymotrypsin, 90 minutes at 37 C” value was 55% of the theoretical pNA was released after 90 minutes of incubation.

B1: Papain (protein)
chain: IPEYVDWRQKGAVTPVKNQGSCGSCWAFSAVVTIEGIIKIRTGNLNEYSEQELLDCDRRSYGCNGGYPWSALQLVAQYGIHYRNTYPYEGVQRYCRSREKGPYAAKTDGVRQVQPYNEGALLYSIANQPVSVVLEAAGKDFQLYRGGIFVGPCGNKVDHAVAAVGYGPNYILIKNSWGTGWGENGYIRIKRGTGNSYGVCGLYTSSFYPVKN
With B1, the “pNA release (absorbance at 405 nm) with papain and trypsin” value with (AcFG)K-pNA [2] was “In the presence of papain and trypsin, pNA release from the substrate was observed to be substrate dependent”.
